Our source for the K half values is article PMC5021983.

Holding throughout (test): FRET titration
The test system of data set [1] is Gal4. The settings on record: EMSA: 5 nM nucleosome, 130 mM NaCl, 10% glycerol, 10 mM Tris-HCl pH 8, 0.005% Tween 20, 0.5x TE, room temperature 3 min, 5% native PAGE in 0.3x TTE, FRET: 5 nM …. On the technique in general: Mobility shift assays separate free from complexed probe on a gel.
Data set [2] deals with MeCP2 (human). The settings on record: EMSA: 5 nM nucleosome, 130 mM NaCl, 10% glycerol, 10 mM Tris-HCl pH 8, 0.005% Tween 20, 0.5x TE, room temperature 3 min, 5% native PAGE in 0.3x TTE; FRET: 5 nM ….
Data set [3] has as its system histone H1 (Drosophila). Particulars: EMSA: 5 nM nucleosome, 130 mM NaCl, 10% glycerol, 10 mM Tris-HCl pH 8, 0.005% Tween 20, 0.5x TE, room temperature 3 min, 5% native PAGE in 0.3x TTE; FRET: 5 nM ….

Consider “601 mononucleosome with Gal4 site, 247 bp (FRET construct)”, for which the K half in data set [1] (no CAP, 5 nM nucleosome, Hill coefficient -3.76 ± 2.16) was 3.06 nM; in data set [1] (nucleosome prebound with 25 nM MeCP2, Hill coefficient -1.47 ± 0.22) it was 12.2 nM; in data set [2], 20.7 nM; in data set [3], 12.1 nM.
